One series has as its target XRCC1 (human, UniProt P18887 1-633). The experiment in a line: fluorescence titration; TAF-XRCC1; n 0.90; 50 mM HEPES pH 8.0, 100 mM NaCl, 4 mM DTT (+10 mM EDTA for APE1); labelled protein from 20 nM; temperature not stated. The following applies: protein: recombinant; tags: TAF-labelled; blunt outer ends, 1-nt gap; upstream 15-mer + downstream 16-mer on 32-mer template.

The target of series [1] is T1, DNA polymerase beta (Polβ) (rat, UniProt P06766 1-335). Briefly: fluorescence titration; FAM-Polβ; n 1.3; 50 mM HEPES pH 8.0, 100 mM NaCl, 4 mM DTT (+10 mM EDTA for APE1); labelled protein from 20 nM; temperature not stated.
Another series addresses AP endonuclease 1 (APE1) (human, UniProt P27695 1-318). Briefly: fluorescence titration; TAF-APE1; 10 mM EDTA; n 1.15; 50 mM HEPES pH 8.0, 100 mM NaCl, 4 mM DTT (+10 mM EDTA for APE1); labelled protein from 20 nM; temperature not stated. Particulars: protein: recombinant; tags: TAF- or FAM-labelled (terminal amino group primarily); blunt outer ends, 1-nt gap; upstream 15-mer + downstream 16-mer on 32-mer template.

The target in series [2] is T1, DNA polymerase beta (Polβ). Briefly: fluorescence titration; TAF-Polβ; n 0.94; 50 mM HEPES pH 8.0, 100 mM NaCl, 4 mM DTT (+10 mM EDTA for APE1); labelled protein from 20 nM; temperature not stated.

B1: gap-DNA (dsDNA)
DNA 1: GGCGATTAAGTTGGG
DNA 2: AACGTCAGGGTCTTCC
DNA 3: GGAAGACCCTGACGTTACCCAACTTAATCGCC
modifications: 5'-phosphate on downstream primer
Consider B1, for which the “apparent K (half saturation)” value came to 25 ± 4 nM in the series with XRCC1, 23 nM in series [1], 25 ± 3 nM with AP endonuclease 1 (APE1) and 30 nM in series [2].

The values are drawn from article PMC4499159, “Quantitative characterization of protein–protein complexes involved in base excision DNA repair”.
